Measurements: PMC7881136

Molecular target: Kapβ2 (untagged, GST removed) (human) (UniProt Q92973)
Experiment: ITC; 10 μM Kapβ2 in the cell, 100 μM or 200 μM MBP-FUS protein in the syringe; 20 mM Tris–HCl, 150 mM NaCl, 10% glycerol, 2 mM BME; 20 °C; single class of binding sites, global analysis of duplicates or triplicates

Kapβ2 (untagged, GST removed) (human), sequence (Q92973 9-898): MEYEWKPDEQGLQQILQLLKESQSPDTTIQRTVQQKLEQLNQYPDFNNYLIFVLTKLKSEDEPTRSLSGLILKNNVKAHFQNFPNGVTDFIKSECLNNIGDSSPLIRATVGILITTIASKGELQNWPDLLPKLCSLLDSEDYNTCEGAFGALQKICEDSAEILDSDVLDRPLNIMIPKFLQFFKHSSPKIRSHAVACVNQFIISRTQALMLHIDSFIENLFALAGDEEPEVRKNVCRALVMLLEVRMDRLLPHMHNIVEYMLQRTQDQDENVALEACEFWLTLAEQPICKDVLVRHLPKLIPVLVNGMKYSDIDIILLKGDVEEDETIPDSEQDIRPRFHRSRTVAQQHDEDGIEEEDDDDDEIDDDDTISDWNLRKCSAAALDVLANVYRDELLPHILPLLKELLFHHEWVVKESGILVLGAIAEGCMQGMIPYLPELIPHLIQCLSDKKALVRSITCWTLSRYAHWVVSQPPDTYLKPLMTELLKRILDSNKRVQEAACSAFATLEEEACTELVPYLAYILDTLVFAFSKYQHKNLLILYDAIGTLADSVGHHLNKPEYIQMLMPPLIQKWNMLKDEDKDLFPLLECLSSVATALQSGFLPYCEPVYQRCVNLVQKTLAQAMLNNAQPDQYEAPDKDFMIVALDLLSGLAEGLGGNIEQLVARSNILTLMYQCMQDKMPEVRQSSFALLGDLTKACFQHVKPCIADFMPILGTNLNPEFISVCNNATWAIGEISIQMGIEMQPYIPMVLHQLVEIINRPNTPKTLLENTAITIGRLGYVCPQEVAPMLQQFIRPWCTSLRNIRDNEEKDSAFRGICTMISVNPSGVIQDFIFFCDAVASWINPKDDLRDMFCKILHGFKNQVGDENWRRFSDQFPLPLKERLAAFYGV

Q: With “MBP-FUS(453–500) (RGG3) (from UniProt P35637 453-500) (domain or fragment)” as the substance, how does the Kd read?
A: 6 µM
